The test concerns the target T1, human TNF-α (human, UniProt P01375 77-233).
T1 construct: It was biotinylated in the plaque lift and on-rate ELISA, and coated on plates or beads in the other assays; also called hTNF-α; hTNF
Put plainly: kinetic exclusion assay (KinExA 3000), 40 pM Fab with 400 pM hTNF-α, time course. As to the method:
Next, binding kinetics of three of the Fab fragments described in Table 4 were determined in a kinetic exclusion assay. Affinity measurements were performed on a KinExA™3000 instrument (Sapidyne Instruments, Inc., Boise, Id.) using Fab fragments (A10K, A9K, and A10P) released from the periplasmic space whose concentration was determined by a quantitative ELISA. Briefly, antigen and antibody fragment were allowed to react in solution and the fraction of unbound reagent was determined by capture and measured on a bead support. Binding kinetics can be determined or calculated from the amount of unbound reagent. For instance, after interaction between TNF-α and a Fab fragment has occurred in solution, binding of the unreacted, free Fab fragment to TNF-α coated beads can be measured on the instrument by detection with a labeled secondary antibody to the Fab fragment (e.g., a goat anti-IgG (heavy and light)). […] After the incubation, the amount of unbound Fab in the equilibrated samples was determined on the KinExA™3000 instrument according to the manufacturer's instructions. Kd values were determined by the instrument software.
To measure kₒₙ, individual Fab fragments at a concentration of 40 pM were mixed with 400 pM of hTNF-α. […] The resulting data was used to calculate the kₒₙ with the instrument software. koff was calculated by using the formula Kd=koff/kₒₙ.

T1 sequence (P01375 77-233 limits assumed): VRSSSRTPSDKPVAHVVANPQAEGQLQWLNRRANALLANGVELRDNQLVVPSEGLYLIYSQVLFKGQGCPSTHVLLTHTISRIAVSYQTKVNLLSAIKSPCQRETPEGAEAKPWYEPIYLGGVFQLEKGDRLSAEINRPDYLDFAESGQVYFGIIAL

B1: A10K Fab fragment (Fab, V domains shown)
VH: EVQLVESGGGLVQPGGSLRLSCAASGFKFSNHWMNWVRQAPGKGLEWVGEIRSKSMNSATHYAESVKGRFTISRDDSKNSLYLQMNSLKTEDTAVYYCARNYYGSTYDHWGQGTLVTVSS
VL: EIVLTQSPDFQSVTPKEKVTITCRASQFVGYSIHWYQQKPDQSPKLLIKYASESRSGVPSRFSGSGSGTDFTLTINSLEAEDAATYYCQQSHSWHFTFGQGTKVEIK
notes: Fab released from the E. coli periplasm; The light chain is kappa, since it was detected with anti-human kappa; Mutations against hu1: light S31Y, M55R
As to B1, the kon was 3.92e+06 to 7.51e+06 M⁻¹ s⁻¹.

Source of the values: US20040131613A1 (published 2004).
